Positions count from the first letter of the chain named. Names and notes keep the numbering of the source.
Tests used:
Format in all cases: biochemical, Escherichia coli
[1] = substrate: N[C@@H](CC(=O)O)C(=O)O; assay: Aspartate kinase assay (ADP production coupled to NADH oxidation), His-tagged wild-type LysC; details: other: His-tagged LysC, Eadie and Hofstee, pH 7.5, 30° C.
Protocol: (§1) Enzymatic assay: Aspartate or malate kinase activities were assayed by coupling ADP production in the kinase reactions to NADH oxidation in the presence of phosphoenolpyruvate, pyruvate kinase, and lactate dehydrogenase.
(§2) Aspartate (or Malate) Kinase aspartate (or malate)+ATP→4-phospho-(L)-aspartate (or 4-phospho-(L)-malate)+ADP
(§3) The assay mixture contained 50 mM Hepes (pH 7.5), 50 mM KCl, 5 mM MgCl2, 0.24 mM NADH, 0.96 mM ATP, 0.96 mM PEP, 9 μg/mL of lactate dehydrogenase (Sigma, L2500), 12.4 μg/mL pyruvate kinase (Sigma, P1506), and appropriate amounts of purified aspartate (malate) kinase. Reactions were started by adding 50 mM (L)-aspartate or (L)-malate. Enzymatic assays were carried out at 30° C. in 96-well flat bottomed microtiter plates in a final volume of 250 μL. The reactions were followed by the characteristic absorption of NADH at 340 nm in a microplate reader (BioRad 680XR).
Maximum activities for LysC and Hom3 on aspartate were 4.5 μmol/(min*mgprot) and 1.6 μmol/(min*mgprot), respectively. The Km value for aspartate was estimated with the method of Eadie and Hofstee by measuring initial reaction rates (v) at different substrate concentrations (c) and by extracting the slope of the v versus v/c plot. […]

[2] = substrate: O=C(O)C[C@H](O)C(=O)O; assay: Malate kinase assay, LysC E119P; details: other: malate, pH 7.5, 30° C., average of at least two independent experiments
Protocol: as §1, §2, §3
(§4) Mutant enzymes were expressed, purified and tested for aspartate and malate kinase activity as described in Example 1.

[3] = substrate: O=C(O)C[C@H](O)C(=O)O; assay: Malate kinase assay, LysC E119Q; details: other: malate, pH 7.5, 30° C., average of at least two independent experiments
Protocol: as §1, §2, §3, §4

[4] = substrate: O=C(O)C[C@H](O)C(=O)O; assay: Malate kinase assay, LysC E119T; details: other: malate, pH 7.5, 30° C., average of at least two independent experiments
Protocol: as §1, §2, §3, §4

[5] = substrate: O=C(O)C[C@H](O)C(=O)O; assay: Malate kinase assay, LysC E119G; details: other: malate, pH 7.5, 30° C., average of at least two independent experiments
Protocol: as §1, §2, §3, §4

[6] = substrate: O=C(O)C[C@H](O)C(=O)O; assay: Malate kinase assay, LysC E119S; details: other: malate, pH 7.5, 30° C., average of at least two independent experiments
Protocol: as §1, §2, §3, §4

[7] = substrate: O=C(O)C[C@H](O)C(=O)O; assay: Malate kinase assay, LysC E119V; details: other: malate, pH 7.5, 30° C., average of at least two independent experiments
Protocol: as §1, §2, §3, §4

[8] = substrate: O=C(O)C[C@H](O)C(=O)O; assay: Malate kinase assay, LysC E119C; details: other: malate, pH 7.5, 30° C., average of at least two independent experiments
Protocol: as §1, §2, §3, §4

[9] = substrate: O=C(O)C[C@H](O)C(=O)O; assay: Malate kinase assay, LysC E119N; details: other: malate, pH 7.5, 30° C., average of at least two independent experiments
Protocol: as §1, §2, §3, §4

[10] = substrate: O=CC[C@H](O)C(=O)O; assay: Malate semialdehyde dehydrogenase assay, Asd E241Q T136N; details: other: malate semialdehyde, reverse biosynthetic direction, pH 9, 0.25 mM NADP, 30° C.
Protocol: (§5) Enzymatic assay: Aspartate or malate semialdehyde dehydrogenase activities were assayed in the reverse biosynthetic direction by following the reduction of NADP during the oxidation of aspartate or malate semialdehyde to 4-phospho-(L)-aspartate or 4-phospho-(L)-malate, respectively (Roberts et al., 2003). (L)-aspartate semialdehyde (or (L)-malate semialdehyde)+NADP+Pi→4-phospho-(L)-aspartate (or 4-phospho-(L)-malate)+NADPH
(§6) The assay mixture contained 200 mM Hepes (pH 9), 50 mM K2HPO4, 0.25 mM NADP. Reactions were started by adding (L)-aspartate semialdehyde or (L)-malate semialdehyde. (L)-Aspartate semialdehyde was added in the form of L-aspartic acid β-semialdehyde hydrate trifluoroacetate (maintained at pH3 to prevent degradation) which is a suitable substrate for enzymatic tests of homoserine dehydrogenase and aspartate semialdehyde dehysrogenase (Roberts et al., 2003). Unstable malate semialdehyde was produced freshly prior to the enzymatic tests by the deprotection of the stable malate semialdehyde derivative 2-[(4S)-2,2-dimethyl-5-oxo-1,3-dioxolan-4-yl]acetaldehyde (DMODA). […]
Enzymatic assays were carried out in 96-well flat bottomed microtiter plates in a final volume of 250 μL at 30° C. The reactions were followed by the characteristic absorption of NADPH at 340 nm in a microplate reader (BioRad 680XR). […]

[11] = substrate: O=CC[C@H](O)C(=O)O; assay: Malate semialdehyde dehydrogenase assay, Asd E241H; details: other: malate semialdehyde, reverse biosynthetic direction, pH 9, 0.25 mM NADP, 30° C.
Protocol: as §5, §6
(§7) Enzymatic assays were carried out in 96-well flat bottomed microtiter plates in a final volume of 250 μL at 30° C. The reactions were followed by the characteristic absorption of NADPH at 340 nm in a microplate reader (BioRad 680XR).

[12] = substrate: O=CC[C@H](O)C(=O)O; assay: Malate semialdehyde dehydrogenase assay, Asd E241M; details: other: malate semialdehyde, reverse biosynthetic direction, pH 9, 0.25 mM NADP, 30° C.
Protocol: as §5, §6, §7

[13] = substrate: O=CC[C@H](O)C(=O)O; assay: Malate semialdehyde dehydrogenase assay, Asd E241C; details: other: malate semialdehyde, reverse biosynthetic direction, pH 9, 0.25 mM NADP, 30° C.
Protocol: as §5, §6, §7

[14] = substrate: O=CC[C@H](O)C(=O)O; assay: Malate semialdehyde dehydrogenase assay, Asd E241G; details: other: malate semialdehyde, reverse biosynthetic direction, pH 9, 0.25 mM NADP, 30° C.
Protocol: as §5, §6, §7

[15] = substrate: O=CC[C@H](O)C(=O)O; assay: Malate semialdehyde dehydrogenase assay, Asd E241Q; details: other: malate semialdehyde, reverse biosynthetic direction, pH 9, 0.25 mM NADP, 30° C.
Protocol: as §5, §6, §7

[16] = substrate: O=CC[C@H](O)C(=O)O; assay: Malate semialdehyde dehydrogenase assay, Asd E241I; details: other: malate semialdehyde, reverse biosynthetic direction, pH 9, 0.25 mM NADP, 30° C.
Protocol: as §5, §6, §7

[17] = substrate: O=CC[C@H](O)C(=O)O; assay: Malate semialdehyde dehydrogenase assay, Asd E241A; details: other: malate semialdehyde, reverse biosynthetic direction, pH 9, 0.25 mM NADP, 30° C.
Protocol: as §5, §6, §7

B1: E. coli aspartate kinase III LysC, wild type, His-tagged, SEQ ID NO: 4 (Escherichia coli K-12) (protein)
chain: MSEIVVSKFGGTSVADFDAMNRSADIVLSDANVRLVVLSASAGITNLLVALAEGLEPGERFEKLDAIRNIQFAILERLRYPNVIREEIERLLENITVLAEAAALATSPALTDELVSHGELMSTLLFVEILRERDVQAQWFDVRKVMRTNDRFGRAEPDIAALAELAALQLLPRLNEGLVITQGFIGSENKGRTTTLGRGGSDYTAALLAEALHASRVDIWTDVPGIYTTDPRVVSAAKRIDEIAFAEAAEMATFGAKVLHPATLLPAVRSDIPVFVGSSKDPRAGGTLVCNKTENPPLFRALALRRNQTLLTLHSLNMLHSRGFLAEVFGILARHNISVDLITTSEVSVALTLDTTGSTSTGDTLLTQSLLMELSALCRVEVEEGLALVALIGNDLSKACGVGKEVFGVLEPFNIRMICYGASSHNLCFLVPGEDAEQVVQKLHSNLFE
[1]
  Km: 600 µM

B2: E. coli aspartate kinase LysC variant E119P, SEQ ID NO: 18 (Escherichia coli K-12; E119P) (protein)
chain: B1 chain with E119P
[2]
  Km: 19000 µM
  Vmax: 0.71 µmol/mg/min

B3: E. coli aspartate kinase LysC variant E119Q, SEQ ID NO: 20 (Escherichia coli K-12; E119Q) (protein)
chain: B1 chain with E119Q
[3]
  Km: 39900 µM
  Vmax: 0.01 µmol/mg/min

B4: E. coli aspartate kinase LysC variant E119T, SEQ ID NO: 24 (Escherichia coli K-12; E119T) (protein)
chain: B1 chain with E119T
[4]
  Km: 26800 µM
  Vmax: 0.33 µmol/mg/min

B5: E. coli aspartate kinase LysC variant E119G, SEQ ID NO: 14 (Escherichia coli K-12; E119G) (protein)
chain: B1 chain with E119G
[5]
  Km: 16000 µM
  Vmax: 0.49 µmol/mg/min

B6: E. coli aspartate kinase LysC variant E119S, SEQ ID NO: 22 (Escherichia coli K-12; E119S) (protein)
chain: B1 chain with E119S
[6]
  Km: 15700 µM
  Vmax: 0.83 µmol/mg/min

B7: E. coli aspartate kinase LysC variant E119V, SEQ ID NO: 26 (Escherichia coli K-12; E119V) (protein)
chain: B1 chain with E119V
[7]
  Km: 39700 µM
  Vmax: 0.29 µmol/mg/min

B8: E. coli aspartate kinase LysC variant E119C, SEQ ID NO: 12 (Escherichia coli K-12; E119C) (protein)
chain: B1 chain with E119C
[8]
  Km: 19700 µM
  Vmax: 0.97 µmol/mg/min

B9: E. coli aspartate kinase LysC variant E119N, SEQ ID NO: 16 (Escherichia coli K-12; E119N) (protein)
chain: B1 chain with E119N
[9]
  Km: 27100 µM
  Vmax: 0.13 µmol/mg/min

B10: E. coli aspartate semialdehyde dehydrogenase Asd variant E241Q T136N, SEQ ID NO: 231 (Escherichia coli K-12; E241Q/T136N) (protein)
chain: MKNVGFIGWRGMVGSVLMQRMVEERDFDAIRPVFFSTSQLGQAAPSFGGTTGTLQDAFDLEALKALDIIVTCQGGDYTNEIYPKLRESGWQGYWIDAASSLRMKDDAIIILDPVNQDVITDGLNNGIRTFVGGNCNVSLMLMSLGGLFANDLVDWVSVATYQAASGGGARHMRELLTQMGHLYGHVADELATPSSAILDIERKVTTLTRSGELPVDNFGVPLAGSLIPWIDKQLDNGQSRQEWKGQAETNKILNTSSVIPVDGLCVRVGALRCHSQAFTIKLKKDVSIPTVEELLAAHNPWAKVVPNDREITMRELTPAAVTGTLTTPVGRLRKLNMGPEFLSAFTVGDQLLWGAAEPLRRMLRQLA
[10]
  Km: 250 µM

B11: E. coli aspartate semialdehyde dehydrogenase Asd variant E241H, SEQ ID NO: 60 (Escherichia coli K-12; E241H) (protein)
chain: B10 chain with N136T, Q241H
[11]
  Km: 800 µM
  Vmax: 0.10 µmol/mg/min

B12: E. coli aspartate semialdehyde dehydrogenase Asd variant E241M, SEQ ID NO: 64 (Escherichia coli K-12; E241M) (protein)
chain: B10 chain with N136T, Q241M
[12]
  Km: 430 µM
  Vmax: 0.15 µmol/mg/min

B13: E. coli aspartate semialdehyde dehydrogenase Asd variant E241C, SEQ ID NO: 56 (Escherichia coli K-12; E241C) (protein)
chain: B10 chain with N136T, Q241C
[13]
  Km: 500 µM
  Vmax: 0.18 µmol/mg/min

B14: E. coli aspartate semialdehyde dehydrogenase Asd variant E241G, SEQ ID NO: 58 (Escherichia coli K-12; E241G) (protein)
chain: B10 chain with N136T, Q241G
[14]
  Km: 180 µM
  Vmax: 0.09 µmol/mg/min

B15: E. coli aspartate semialdehyde dehydrogenase Asd variant E241Q, SEQ ID NO: 66 (Escherichia coli K-12; E241Q) (protein)
chain: B10 chain with N136T
[15]
  Km: 520 µM
  Vmax: 0.39 µmol/mg/min

B16: E. coli aspartate semialdehyde dehydrogenase Asd variant E241I, SEQ ID NO: 62 (Escherichia coli K-12; E241I) (protein)
chain: B10 chain with N136T, Q241I
[16]
  Km: 230 µM
  Vmax: 0.10 µmol/mg/min

B17: E. coli aspartate semialdehyde dehydrogenase Asd variant E241A, SEQ ID NO: 54 (Escherichia coli K-12; E241A) (protein)
chain: B10 chain with N136T, Q241A
[17]
  Km: 378 µM
  Vmax: 0.09 µmol/mg/min
